According to patent US20180355059A1:
Where “and” joins values, the source holds several entries; their conditions need not be identical. Identical values can stand only once.

What was measured:
[1] = biological target: recombinant human PCSK9-His protein (Immunogen A) (human) (UniProt Q8NBP7); test: SPR, Biacore T200; antibody captured by anti-human Fc
[2] = biological target: recombinant human PCSK9-His protein (Immunogen A) (human) (UniProt Q8NBP7); test: ELISA of PCSK9 binding to LDLR ECD; antibody 0 nM
[3] = biological target: recombinant cyno monkey PCSK9 protein (cyno monkey); test: ELISA; antibody 0 nM
[4] = biological target: recombinant human PCSK9^D374Y protein (human) (UniProt Q8NBP7); test: ELISA of PCSK9^D374Y binding to LDLR ECD; antibody 0.06 nM
[5] = biological target: recombinant human PCSK9-His protein (Immunogen A) (human) (UniProt Q8NBP7); test: ELISA of PCSK9 binding to LDLR ECD; antibody 40 nM
[6] = biological target: recombinant cyno monkey PCSK9 protein (cyno monkey); test: ELISA; antibody 0.67 nM
[7] = biological target: recombinant human PCSK9-His protein (Immunogen A) (human) (UniProt Q8NBP7); test: ELISA of PCSK9 binding to LDLR ECD; antibody 200 nM
[8] = biological target: recombinant human PCSK9-His protein (Immunogen A) (human) (UniProt Q8NBP7); test: ELISA; antibody 66.67 nM
[9] = biological target: recombinant cyno monkey PCSK9 protein (cyno monkey); test: ELISA; antibody 66.67 nM
[10] = biological target: recombinant cyno monkey PCSK9 protein (cyno monkey); test: ELISA; antibody 0.000067 nM
[11] = biological target: recombinant cyno monkey PCSK9 protein (cyno monkey); test: ELISA; antibody 6.67 nM
[12] = biological target: recombinant human PCSK9-His protein (Immunogen A) (human) (UniProt Q8NBP7); test: ELISA of PCSK9 binding to LDLR ECD; antibody 8 nM
[13] = biological target: recombinant cyno monkey PCSK9 protein (cyno monkey); test: ELISA; antibody 0.00067 nM
[14] = biological target: recombinant cyno monkey PCSK9 protein (cyno monkey); test: ELISA; antibody 0 nM; remark: listed apart in the source
[15] = biological target: recombinant human PCSK9 protein, His-tagged (Immunogen A, hPCSK9-His) (human) (UniProt Q8NBP7); test: ELISA, biotin-hPCSK9-His on streptavidin plate; antibody 66.67 nM
[16] = biological target: recombinant cyno monkey PCSK9 protein (cyno monkey); test: ELISA, biotin-cyno PCSK9 on streptavidin plate; antibody 0.00067 nM
[17] = biological target: recombinant human PCSK9 protein, His-tagged (Immunogen A, hPCSK9-His) (human) (UniProt Q8NBP7); test: blocking ELISA, biotin-hPCSK9-His on coated LDLR ECD-His; antibody 8 nM
[18] = biological target: recombinant cyno monkey PCSK9 protein (cyno monkey); test: ELISA, biotin-cyno PCSK9 on streptavidin plate; antibody 0 nM (blank)
[19] = biological target: recombinant human PCSK9 protein, His-tagged (Immunogen A, hPCSK9-His) (human) (UniProt Q8NBP7); test: blocking ELISA, biotin-hPCSK9-His on coated LDLR ECD-His; antibody 0.01 nM
[20] = biological target: recombinant cyno monkey PCSK9 protein (cyno monkey); test: ELISA, biotin-cyno PCSK9 on streptavidin plate; antibody 0.000067 nM
[21] = biological target: recombinant human PCSK9 protein, His-tagged (Immunogen A, hPCSK9-His) (human) (UniProt Q8NBP7); test: blocking ELISA, biotin-hPCSK9-His on coated LDLR ECD-His; antibody 0.32 nM
[22] = biological target: recombinant cyno monkey PCSK9 protein (cyno monkey); test: ELISA, biotin-cyno PCSK9 on streptavidin plate; antibody 0.67 nM
[23] = biological target: recombinant cyno monkey PCSK9 protein (cyno monkey); test: ELISA, biotin-cyno PCSK9 on streptavidin plate; antibody 66.67 nM
[24] = biological target: recombinant human PCSK9 protein, His-tagged (Immunogen A, hPCSK9-His) (human) (UniProt Q8NBP7); test: ELISA, biotin-hPCSK9-His on streptavidin plate; antibody 6.67 nM
[25] = biological target: recombinant cyno monkey PCSK9 protein (cyno monkey); test: ELISA, biotin-cyno PCSK9 on streptavidin plate; antibody 6.67 nM
[26] = biological target: recombinant human PCSK9 protein, His-tagged (Immunogen A, hPCSK9-His) (human) (UniProt Q8NBP7); test: ELISA, biotin-hPCSK9-His on streptavidin plate; antibody 0.067 nM
[27] = biological target: recombinant human PCSK9 protein, His-tagged (Immunogen A, hPCSK9-His) (human) (UniProt Q8NBP7); test: blocking ELISA, biotin-hPCSK9-His on coated LDLR ECD-His; antibody 0.06 nM
[28] = biological target: recombinant human PCSK9 protein, His-tagged (Immunogen A, hPCSK9-His) (human) (UniProt Q8NBP7); test: ELISA, biotin-hPCSK9-His on streptavidin plate; antibody 0.000067 nM
[29] = biological target: recombinant cyno monkey PCSK9 protein (cyno monkey); test: ELISA, biotin-cyno PCSK9 on streptavidin plate; antibody 0.067 nM
[30] = biological target: recombinant cyno monkey PCSK9 protein (cyno monkey); test: ELISA, biotin-cyno PCSK9 on streptavidin plate; antibody 0.0067 nM
[31] = biological target: recombinant human PCSK9 protein, His-tagged (Immunogen A, hPCSK9-His) (human) (UniProt Q8NBP7); test: blocking ELISA, biotin-hPCSK9-His on coated LDLR ECD-His; antibody 40 nM
[32] = biological target: recombinant human PCSK9 protein, His-tagged (Immunogen A, hPCSK9-His) (human) (UniProt Q8NBP7); test: ELISA, biotin-hPCSK9-His on streptavidin plate; antibody 0.0067 nM
[33] = biological target: recombinant human PCSK9 protein, His-tagged (Immunogen A, hPCSK9-His) (human) (UniProt Q8NBP7); test: blocking ELISA, biotin-hPCSK9-His on coated LDLR ECD-His; antibody 200 nM
[34] = biological target: recombinant human PCSK9 protein, His-tagged (Immunogen A, hPCSK9-His) (human) (UniProt Q8NBP7); test: ELISA, biotin-hPCSK9-His on streptavidin plate; antibody 0.00067 nM
[35] = biological target: recombinant human PCSK9 protein, His-tagged (Immunogen A, hPCSK9-His) (human) (UniProt Q8NBP7); test: blocking ELISA, biotin-hPCSK9-His on coated LDLR ECD-His; antibody 1.6 nM
[36] = biological target: recombinant human PCSK9 protein, His-tagged (Immunogen A, hPCSK9-His) (human) (UniProt Q8NBP7); test: ELISA, biotin-hPCSK9-His on streptavidin plate; antibody 0 nM (blank)
[37] = biological target: recombinant human PCSK9 protein, His-tagged (Immunogen A, hPCSK9-His) (human) (UniProt Q8NBP7); test: ELISA, biotin-hPCSK9-His on streptavidin plate; antibody 0.67 nM

recombinant cyno monkey PCSK9 protein (cyno monkey), sequence (A8T666 31-692 limits assumed): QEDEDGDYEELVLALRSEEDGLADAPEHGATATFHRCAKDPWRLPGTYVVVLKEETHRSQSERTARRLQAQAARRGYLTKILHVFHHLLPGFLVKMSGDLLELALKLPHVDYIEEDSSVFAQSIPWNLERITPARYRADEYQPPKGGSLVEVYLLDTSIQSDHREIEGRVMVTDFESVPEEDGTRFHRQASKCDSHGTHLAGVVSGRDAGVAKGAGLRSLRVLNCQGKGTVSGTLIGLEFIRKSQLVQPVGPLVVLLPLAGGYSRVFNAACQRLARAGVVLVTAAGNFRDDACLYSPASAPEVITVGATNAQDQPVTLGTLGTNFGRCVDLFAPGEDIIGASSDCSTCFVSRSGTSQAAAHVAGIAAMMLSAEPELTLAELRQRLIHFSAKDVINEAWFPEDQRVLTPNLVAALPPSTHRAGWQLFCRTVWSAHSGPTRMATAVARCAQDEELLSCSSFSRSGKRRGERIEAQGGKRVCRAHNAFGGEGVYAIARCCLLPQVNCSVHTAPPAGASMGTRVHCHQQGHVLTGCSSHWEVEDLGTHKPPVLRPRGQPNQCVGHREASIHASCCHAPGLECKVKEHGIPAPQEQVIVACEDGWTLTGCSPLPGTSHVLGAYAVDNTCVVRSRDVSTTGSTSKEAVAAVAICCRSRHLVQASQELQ

Alirocumab, Regeneron (antibody)
Kd [1]: 0.394 nM | koff [1]: 0.000318 s⁻¹ | kon [1]: 806000 M⁻¹ s⁻¹

Evolocumab, Amgen (antibody)
Kd [1]: < 0.122 nM | koff [1]: 0.000822 s⁻¹ | kon [1]: < 100000 M⁻¹ s⁻¹

IgG control (human IgG) (antibody)
OD450 nm [2]: 2.4 OD450 nm | OD450 nm [3]: 0.07 OD450 nm | OD450 nm [4]: 1.57 OD450 nm | OD450 nm [5]: 1.43 OD450 nm | OD450 nm [6]: 0.08 OD450 nm | OD450 nm [7]: 1.41 OD450 nm | OD450 nm [8]: 0.97 OD450 nm | OD450 nm [9]: 0.81 OD450 nm | OD450 nm [10]: 0.07 OD450 nm | OD450 nm [11]: 0.15 OD450 nm | OD450 nm [12]: 1.76 OD450 nm | OD450 nm [13]: 0.07 OD450 nm | OD450 nm [14]: 0.06 OD450 nm

IgG control (rat IgG) (antibody)
OD450 nm [15]: 0.11 OD450 nm | OD450 nm [16]: 0.16 OD450 nm | OD450 nm (PCSK9 bound to LDLR) [17]: 1.02 OD450 nm and 1.07 OD450 nm | OD450 nm [18]: 0.15 OD450 nm | OD450 nm (PCSK9 bound to LDLR) [19]: 1.22 OD450 nm and 1.18 OD450 nm | OD450 nm [20]: 0.19 OD450 nm | OD450 nm (PCSK9 bound to LDLR) [21]: 1.2 OD450 nm and 1.13 OD450 nm | OD450 nm [22]: 0.12 OD450 nm | OD450 nm [23]: 0.18 OD450 nm | OD450 nm [24]: 0.1 OD450 nm | OD450 nm [25]: 0.17 OD450 nm | OD450 nm [26]: 0.12 OD450 nm and 0.09 OD450 nm | OD450 nm (PCSK9 bound to LDLR) [27]: 1.26 OD450 nm and 1.2 OD450 nm | OD450 nm [28]: 0.11 OD450 nm | OD450 nm [29]: 0.12 OD450 nm | OD450 nm [30]: 0.12 OD450 nm | OD450 nm (PCSK9 bound to LDLR) [31]: 1.01 OD450 nm and 1.11 OD450 nm | OD450 nm [32]: 0.18 OD450 nm and 0.1 OD450 nm | OD450 nm (PCSK9 bound to LDLR) [33]: 1.22 OD450 nm and 1.14 OD450 nm | OD450 nm [34]: 0.18 OD450 nm and 0.09 OD450 nm | OD450 nm (PCSK9 bound to LDLR) [35]: 1.09 OD450 nm and 1.12 OD450 nm | OD450 nm [36]: 0.1 OD450 nm | OD450 nm [37]: 0.09 OD450 nm
